Paper PMC10352132 (Nature Structural & Molecular Biology, 2023)

Target: wild-type Rattus norvegicus GABA transporter 1 (rGAT1WT) (Rattus norvegicus, UniProt P23978)
Details: one partner purified

B1: Fab 9D5 (Fab, V domains shown)
VH: EVQLVESGGGLVKPGGSLKLSCAASGFTFSSYAMSWVRQSPEKRLEWVAEISSGGRYIYYSDTVTGRFTISRDNARNILHLEMSSLRSEDTAMYYCARGEVRQRGFDYWGQGTTLTVSS
VL: ENVLTQSPAIMSTSPGEKVTMTCRASSSVGSSYLHWYQQKSGASPKLWIYSTSNLASGVPARFSGSGSGTSYSLTISSVEAEDAATYYCQQFSGYPLTFGSGTKLEMK
notes: heavy chain of Fab 9D5; light chain of Fab 9D5; Heavy and light chains were synthesized and cloned into pFastBac Dual with an N-terminal GP64 signal peptide; Only VH and VL are modeled in PDB 8GNK; also called 9D5 Fab; 9D5-Fab; source: Sf9 cells, baculovirus, exported into the media; purified (Ni-NTA, SEC on Superdex 75)
B1: no binding (tested: 50 ng of 9D5).
